Data from doi:10.1101/441683.

Target: TssM (enteroaggregative Escherichia coli (EAEC))
Assay: cryo-EM structure

Substance: TssJ (natural protein)
- stoichiometry N (TssJ per TssM): 1.5
